Here are results for one molecule from article PMC6090299, “Quantitative Analysis of Interaction Between CADM1 and Its Binding Cell-Surface Proteins Using Surface Plasmon Resonance Imaging” (Frontiers in Cell and Developmental Biology, 2018).

The target of the assay is T1, CADM1-Fc (human (by the printed RefSeq entry), UniProt Q9BY67-1 45-374).
T1 construct: signal peptide in the construct; CADM1 extracellular domain, NP_055148, 1-374 a.a; Human IgG2-Fc fragment from pFUSE-hIgG2-Fc1; Glycosylated; also called cell adhesion molecule 1 extracellular domain fused with Fc; source: FreeStyle 293-F cells, transiently transfected, purified from the supernatant (Protein G Sepharose); not shown: Fc (human IgG2), C-terminal, kept
T1 sequence (looked up): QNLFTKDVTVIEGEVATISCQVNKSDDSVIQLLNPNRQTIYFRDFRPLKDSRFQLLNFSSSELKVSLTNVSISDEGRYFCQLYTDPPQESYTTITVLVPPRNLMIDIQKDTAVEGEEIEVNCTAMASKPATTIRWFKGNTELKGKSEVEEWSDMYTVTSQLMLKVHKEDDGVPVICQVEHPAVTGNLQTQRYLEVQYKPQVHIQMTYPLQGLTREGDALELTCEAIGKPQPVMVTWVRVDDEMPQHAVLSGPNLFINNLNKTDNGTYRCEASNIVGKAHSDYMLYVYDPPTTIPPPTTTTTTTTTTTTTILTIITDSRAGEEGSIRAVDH
Put plainly: SPR; SPR imaging (OpenPlex); the 10 IgSF-Fc proteins (7-24 μM) spotted in hexaplicate and immobilised by amine coupling; 2.4 μM CADM1-Fc injected for 4 min; 25°C; PBS with 0.2% BSA and 0.02% Tween20, 50 μL/min; signal of normal human IgG subtracted. The note with it: both partners purified. A general note: In SPR one partner is held on a chip, and binding of the other changes the refractive index at the surface.

B1: CRTAM-Fc (Fc fusion, human (by the printed RefSeq entry), UniProt O95727-1 18-287, looked up)
chain: SLTNHTETITVEEGQTLTLKCVTSLRKNSSLQWLTPSGFTIFLNEYPALKNSKYQLLHHSANQLSITVPNVTLQDEGVYKCLHYSDSVSTKEVKVIVLATPFKPILEASVIRKQNGEEHVVLMCSTMRSKPPPQITWLLGNSMEVSGGTLHEFETDGKKCNTTSTLIIHTYGKNSTVDCIIRHRGLQGRKLVAPFRFEDLVTDEETASDALERNSLSSQDPQQPTSTVSVTEDSSTSEIDKEEKEQTTQDPDLTTEANPQYLGLARKKSG
notes: signal peptide in the construct; CRTAM extracellular domain, NP_062550, 1-287 a.a; Human IgG2-Fc fragment from pFUSE-hIgG2-Fc1; also called class-I MHC-restricted T-cell-associated molecule; source: FreeStyle 293-F cells, transiently transfected, purified from the supernatant (Protein G Sepharose); not shown: Fc (human IgG2), C-terminal, kept
Broadly, the Kd is a measure of binding affinity in units of concentration. What is called koff is a measure of how fast the partners let go of each other. Read a high koff as fast dissociation. Broadly, the kon is the second-order rate constant of association. High values mean fast association, low ones slow association. Regarding B1, the affinity, expressed as Kd, was 3.3 nM; the koff was 0.00011 s⁻¹; the kon is 31000 M⁻¹ s⁻¹.
